Laboratory results published in patent US5648211.

Test system: BsrI
Assay: cleavage_in_vitro
Conditions: PS at A in filled-in regions; SDA cycle turnover with Bst polymerase; 60 C, 6 mM MgCl2, 50 mM KCl, pH 7.6

CCACCTCTGACTTGAGCGTCCCAGTGTCAATACGGCGGAGCCTATGGAGTAACGCC / GCAAAAGGCCAGGAACCGATAAAAGGATGCGTTGCTGGCGTTACTCCATAGGCTCCG [linear SDA BsrI duplex (filled in to 92 bp)]
activity: 1 min⁻¹
